B1: 21990 (protein)
chain: MALPVTALLLPLALLLHAARPQVQLVESGGGLVQPGGSLRLSCAASGFTFTNHAMSWVRQAPGKGLELVSSISGNGRTTYYADSVKGRFTISRDISKNTLDLQMNSLRAEDTAVYYCAKDGGETLVDSRGQGTLVTVSSLEDLKNVFPPEVAVFEPSEAEISHTQKATLVCLATGFYPDHVELSWWVNGKEVHSGVCTDPQPLKEQPALNDSRYCLSSRLRVSATFWQNPRNHFRCQVQFYGLSENDEWTQDRAKPVTQIVSAEAWGRADCGFTSESYQQGVLSATILYEILLGKATLYAVLVSALVLMAMVKRKDSRGRAKRSGSGATNFSLLKQAGDVEENPGPTSMDWIWRILFLVGAATGAHSFEVQLLESGGGLIQPGGSLRLSCAASGFTFSSHAMTWVRQAPGKGLEWVSAISGSGDYTHYADSVKGRFTISRDNSKNTVYLQMNSLRAEDSAVYYCAKDEDGGSLLGHRGQGTLVTVSSTRIQNPDPAVYQLRDSKSSDKSVCLFTDFDSQTNVSQSKDSDVYITDKCVLDMRSMDFKSNSAVAWSNKSDFACANAFNNSIIPEDTFFPSPESSCDVKLVEKSFETDTNLNFQNLSVIGFRILLLKVAGFNLLMTLRLWSSRAKRSGSGVKQTLNFDLLKLAGDVESNPGPSRGHMTEYKPTVRLATRDDVPRAVRTLAAAFADYPATRHTVDPDRHIERVTELQELFLTRVGLDIGKVWVADDGAAVAVWTTPESVEAGAVFAEIGPRMAELSGSRLAAQQQMEGLLAPHRPKEPAWFLATVGVSPDHQGKGLGSAVVLPGVEAAERAGVPAFLETSAPRNLPFYERLGFTVTADVEVPEGPRTWCMTRKPGA
B2: 22063 (protein)
chain: MALPVTALLLPLALLLHAARPQVQLVESGGGLVQPGGSLRLSCAASGFTFTNHAMSWVRQAPGKGLELVSSISGNGRTTYYADSVKGRFTISRDISKNTLDLQMNSLRAEDTAVYYCAKDGGETLVDSRGQGTLVTVSSLEAAAKEDLKNVFPPEVAVFEPSEAEISHTQKATLVCLATGFYPDHVELSWWVNGKEVHSGVCTDPQPLKEQPALNDSRYCLSSRLRVSATFWQNPRNHFRCQVQFYGLSENDEWTQDRAKPVTQIVSAEAWGRADCGFTSESYQQGVLSATILYEILLGKATLYAVLVSALVLMAMVKRKDSRGRAKRSGSGATNFSLLKQAGDVEENPGPTSMDWIWRILFLVGAATGAHSFEEVQLLESGGGLVQPGGSLRLSCAASGFTFSSYAMSWVRQAPGKGLEWVSSISGSGDYIYYADSVKGRFTISRDISKNTLYLQMNSLRAEDTAVYYCAKEGTGANSSLADYRGQGTLVTVSSTRIQNPDPAVYQLRDSKSSDKSVCLFTDFDSQTNVSQSKDSDVYITDKCVLDMRSMDFKSNSAVAWSNKSDFACANAFNNSIIPEDTFFPSPESSCDVKLVEKSFETDTNLNFQNLSVIGFRILLLKVAGFNLLMTLRLWSSRAKRSGSGVKQTLNFDLLKLAGDVESNPGPSRGHMTEYKPTVRLATRDDVPRAVRTLAAAFADYPATRHTVDPDRHIERVTELQELFLTRVGLDIGKVWVADDGAAVAVWTTPESVEAGAVFAEIGPRMAELSGSRLAAQQQMEGLLAPHRPKEPAWFLATVGVSPDHQGKGLGSAVVLPGVEAAERAGVPAFLETSAPRNLPFYERLGFTVTADVEVPEGPRTWCMTRKPGA

Tested on: L363 cells
Assay: JNG assay, co-culture with L363 cells
Format: cell-based
Conditions: co-culture with L363
Protocol: Cellular supernatant is collected and assayed for the induction of cytokines (e.g., IL2).
JNG (Jurkat cells expressing EGFP under an NFAT promoter) were infected with lentiviral vectors encoding different single chain and multi-chain SARs by spinfection in the presence of 8 µg/ml of Polybrene® (Sigma, Catalog no. H9268). The Jurkat-NFAT-GFP cells are engineered in such a way that the IL-2 promoter, which carries NFAT binding sites, is cloned upstream of the GFP gene. These cells have been used to study signaling via TCR and CAR. The different SARs were stably expressed in Jurkat NFAT-GFP cells by lentiviral mediated gene transfer, followed by selection with puromycin or blasticidin. No drug selection was used in case the construct lacked an antibiotic resistance gene. The SAR-expressing Jurkat-NFAT-GFP cells were cocultured with the target cells at E:T ratio of approximately 1:2 for approximately 4 hours to 18 hours. When the interaction between SIRs and their target antigen results in activation of the NFAT pathway, GFP expression is induced. […] GFP expression was monitored by FACS analysis. The Jurkat-NFAT-GFP (parental) cells were used as control. The structure of different constructs can be determined based on their names. […] The sequence of the other constructs in the table can be similarly determined from their names and by referring to the different Tables of this disclosure that provide the names and SEQ ID NO of the different modules. Alternatively, the composition and modular architecture of the different SAR constructs can be determined from their sequences by bioinformatics tools, including using nucleic acid and amino acids homology searches. A SAR is considered positive in the assay in case the SAR expressing Jurkat-NFAT-GFP cells show greater % GFP positive cells when cultured with the target cell line as compared to parental Jurkat-NFAT-GFP cells. […] In general, the number +/-, +, 2+, 3+, 4+, 5+ refer to approximately 5%, 10%, 20%, 30%, 40% and 50% GFP positive cells. The % of GFP induction in the above assay is dependent not only the relative strength of the SAR but also, among other factors, on the relative level of expression of the SAR in the JNG cells and the relative level of expression of the target antigen in the target cell line. To control for the difference in gene transduction efficiency of the different SAR constructs, the experiment was conducted with JNG cells transduced with SAR constructs co-expressing a drug resistance gene (e.g., puromycin or PAC) followed by drug selection to generate a stable population of SAR-expressing cells. It is to be noted that the drug resistance gene (e.g., PAC) in the SAR constructs is optional and in vivo studies were conducted with SAR constructs lacking the PAC gene.

Molecule	NFAT-GFP ASSAY: L363
B1	+ (refer to approximately 5%, 10%, 20%, 30%, 40% and 50% GFP positive cells)
B2	L363 (+/-) (refer to approximately 5%, 10%, 20%, 30%, 40% and 50% GFP positive cells)

From patent publication US20230212319A1, “NOVEL ANTIGEN BINDING DOMAINS AND SYNTHETIC ANTIGEN RECEPTORS INCORPORATING THE SAME” (University of Southern California, priority 2020, published 2023)
